Our source for the abundance fitness values is the Human Domainome abundance scans (Beltran et al. 2025).

± gives the uncertainty stated by the source.

B1: Zinc finger MYM-type protein 6, residues 427 to 504; numbered along this chain, O95789 (parent)
chain: KLKCQHCNHLFATKPELLFYKGKMFLFCGKNCSDEYKKKNKVVAMCDYCKLQKIIKETVRFSGVDKPFCSEVCKFLSA

In this data set the parent is B1. Nature of the data set: abundance fitness (aPCA) (normalised: wild type 0, dead -1); higher = more abundant; growth selection in yeast, the domain comes from the species named. The settings on record: Homo sapiens.
Consider KLKCQHCNHLFATKPTLLFYKGKMFLFCGKNCSDEYKKKNKVVAMCDYCKLQKIIKETVRFSGVDKPFCSEVCKFLSA [E16T], for which the abundance fitness was -0.037 ± 0.046.

Consider KLKCQHCNHLFATKPALLFYKGKMFLFCGKNCSDEYKKKNKVVAMCDYCKLQKIIKETVRFSGVDKPFCSEVCKFLSA [E16A], for which the abundance fitness is -0.091 ± 0.031.

As to KLKCQHCNHLFATKPSLLFYKGKMFLFCGKNCSDEYKKKNKVVAMCDYCKLQKIIKETVRFSGVDKPFCSEVCKFLSA [E16S], the abundance fitness is -0.146 ± 0.043.

Regarding KLKCQHCNHLFATKPKLLFYKGKMFLFCGKNCSDEYKKKNKVVAMCDYCKLQKIIKETVRFSGVDKPFCSEVCKFLSA [E16K], the abundance fitness was 0.002 ± 0.032.

As to KLKCQHCNHLFATKPLLLFYKGKMFLFCGKNCSDEYKKKNKVVAMCDYCKLQKIIKETVRFSGVDKPFCSEVCKFLSA [E16L], the abundance fitness was -0.139 ± 0.036.

On to KLKCQHCNHLFATKPMLLFYKGKMFLFCGKNCSDEYKKKNKVVAMCDYCKLQKIIKETVRFSGVDKPFCSEVCKFLSA [E16M], for which the abundance fitness is -0.14 ± 0.044.

On to KLKCQHCNHLFATKPNLLFYKGKMFLFCGKNCSDEYKKKNKVVAMCDYCKLQKIIKETVRFSGVDKPFCSEVCKFLSA [E16N], for which the abundance fitness was -0.26 ± 0.094.

As to KLKCQHCNHLFATKPQLLFYKGKMFLFCGKNCSDEYKKKNKVVAMCDYCKLQKIIKETVRFSGVDKPFCSEVCKFLSA [E16Q], the abundance fitness was -0.03 ± 0.041.

Turning to KLKCQHCNHLFATKPDLLFYKGKMFLFCGKNCSDEYKKKNKVVAMCDYCKLQKIIKETVRFSGVDKPFCSEVCKFLSA [E16D], the abundance fitness is -0.169 ± 0.12.

Turning to KLKCQHCNHLFATKPYLLFYKGKMFLFCGKNCSDEYKKKNKVVAMCDYCKLQKIIKETVRFSGVDKPFCSEVCKFLSA [E16Y], the abundance fitness is -0.194 ± 0.2.

On to KLKCQHCNHLFATKPGLLFYKGKMFLFCGKNCSDEYKKKNKVVAMCDYCKLQKIIKETVRFSGVDKPFCSEVCKFLSA [E16G], for which the abundance fitness was -0.279 ± 0.031.

With KLKCQHCNHLFATKPVLLFYKGKMFLFCGKNCSDEYKKKNKVVAMCDYCKLQKIIKETVRFSGVDKPFCSEVCKFLSA [E16V], the abundance fitness is -0.109 ± 0.034.

In the case of KLKCQHCNHLFATKPHLLFYKGKMFLFCGKNCSDEYKKKNKVVAMCDYCKLQKIIKETVRFSGVDKPFCSEVCKFLSA [E16H], the abundance fitness was -0.307 ± 0.19.

As for KLKCQHCNHLFATKPCLLFYKGKMFLFCGKNCSDEYKKKNKVVAMCDYCKLQKIIKETVRFSGVDKPFCSEVCKFLSA [E16C], the abundance fitness is -0.102 ± 0.045.

As to KLKCQHCNHLFATKPRLLFYKGKMFLFCGKNCSDEYKKKNKVVAMCDYCKLQKIIKETVRFSGVDKPFCSEVCKFLSA [E16R], the abundance fitness is -0.102 ± 0.029.

For KLKCQHCNHLFATKPWLLFYKGKMFLFCGKNCSDEYKKKNKVVAMCDYCKLQKIIKETVRFSGVDKPFCSEVCKFLSA [E16W], the abundance fitness was -0.13 ± 0.031.

Regarding KLKCQHCNHLFATKPPLLFYKGKMFLFCGKNCSDEYKKKNKVVAMCDYCKLQKIIKETVRFSGVDKPFCSEVCKFLSA [E16P], the abundance fitness was -0.414 ± 0.045.

Turning to KLKCQHCNHLFAYKPELLFYKGKMFLFCGKNCSDEYKKKNKVVAMCDYCKLQKIIKETVRFSGVDKPFCSEVCKFLSA [T13Y], the abundance fitness is -0.029 ± 0.073.

With KLKCQHCNHLFAVKPELLFYKGKMFLFCGKNCSDEYKKKNKVVAMCDYCKLQKIIKETVRFSGVDKPFCSEVCKFLSA [T13V], the abundance fitness is -0.098 ± 0.042.

For KLKCQHCNHLFARKPELLFYKGKMFLFCGKNCSDEYKKKNKVVAMCDYCKLQKIIKETVRFSGVDKPFCSEVCKFLSA [T13R], the abundance fitness was -0.087 ± 0.028.

As to KLKCQHCNHLFASKPELLFYKGKMFLFCGKNCSDEYKKKNKVVAMCDYCKLQKIIKETVRFSGVDKPFCSEVCKFLSA [T13S], the abundance fitness is -0.148 ± 0.052.

As for KLKCQHCNHLFAWKPELLFYKGKMFLFCGKNCSDEYKKKNKVVAMCDYCKLQKIIKETVRFSGVDKPFCSEVCKFLSA [T13W], the abundance fitness was -0.162 ± 0.039.

Consider KLKCQHCNHLFATKWELLFYKGKMFLFCGKNCSDEYKKKNKVVAMCDYCKLQKIIKETVRFSGVDKPFCSEVCKFLSA [P15W], for which the abundance fitness is -0.534 ± 0.041.

In the case of KLKCQHCNHLFATKYELLFYKGKMFLFCGKNCSDEYKKKNKVVAMCDYCKLQKIIKETVRFSGVDKPFCSEVCKFLSA [P15Y], the abundance fitness is -0.651 ± 0.2.

As to KLKCQHCNHLFATKKELLFYKGKMFLFCGKNCSDEYKKKNKVVAMCDYCKLQKIIKETVRFSGVDKPFCSEVCKFLSA [P15K], the abundance fitness was -0.038 ± 0.039.

On to KLKCQHCNHLFATKAELLFYKGKMFLFCGKNCSDEYKKKNKVVAMCDYCKLQKIIKETVRFSGVDKPFCSEVCKFLSA [P15A], for which the abundance fitness was -0.075 ± 0.03.

In the case of KLKCQHCNHLFATKFELLFYKGKMFLFCGKNCSDEYKKKNKVVAMCDYCKLQKIIKETVRFSGVDKPFCSEVCKFLSA [P15F], the abundance fitness is -0.478 ± 0.085.

In the case of KLKCQHCNHLFATKDELLFYKGKMFLFCGKNCSDEYKKKNKVVAMCDYCKLQKIIKETVRFSGVDKPFCSEVCKFLSA [P15D], the abundance fitness was -0.03 ± 0.041.

Turning to KLKCQHCNHLFATKHELLFYKGKMFLFCGKNCSDEYKKKNKVVAMCDYCKLQKIIKETVRFSGVDKPFCSEVCKFLSA [P15H], the abundance fitness is -0.213 ± 0.039.

With KLKCQHCNHLFATKRELLFYKGKMFLFCGKNCSDEYKKKNKVVAMCDYCKLQKIIKETVRFSGVDKPFCSEVCKFLSA [P15R], the abundance fitness was -0.119 ± 0.029.

As to KLKCQHCNHLFATKIELLFYKGKMFLFCGKNCSDEYKKKNKVVAMCDYCKLQKIIKETVRFSGVDKPFCSEVCKFLSA [P15I], the abundance fitness is -0.412 ± 0.16.

Turning to KLKCQHCNHLFATKMELLFYKGKMFLFCGKNCSDEYKKKNKVVAMCDYCKLQKIIKETVRFSGVDKPFCSEVCKFLSA [P15M], the abundance fitness is -0.335 ± 0.056.

KLKCQHCNHLFATKSELLFYKGKMFLFCGKNCSDEYKKKNKVVAMCDYCKLQKIIKETVRFSGVDKPFCSEVCKFLSA [P15S]: the abundance fitness is -0.119 ± 0.05.

On to KLKCQHCNHLFATKVELLFYKGKMFLFCGKNCSDEYKKKNKVVAMCDYCKLQKIIKETVRFSGVDKPFCSEVCKFLSA [P15V], for which the abundance fitness was -0.37 ± 0.037.

Regarding KLKCQHCNHLFATKEELLFYKGKMFLFCGKNCSDEYKKKNKVVAMCDYCKLQKIIKETVRFSGVDKPFCSEVCKFLSA [P15E], the abundance fitness was -0.083 ± 0.043.
